Article PMC4356361, “Three-dimensional structures of Plasmodium falciparum spermidine synthase with bound inhibitors suggest new strategies for drug design” (Acta Crystallographica Section D: Biological Crystallography, 2015)

Target: the molecule itself
Assay: crystal structure; hanging-drop vapour diffusion at 295 K, 0.1 M MES pH 5.6, 0.1 M ammonium sulfate, 27% PEG 3350; space group C2, three monomers in the asymmetric unit; protein pre-incubated with small-molecule ligands

B1: Plasmodium falciparum spermidine synthase, 39-residue N-terminally truncated construct (enzyme, UniProt Q8II73 40-321, looked up)
chain: SKKWFSEFSIMWPGQAFSLKIKKILYETKSKYQNVLVFESTTYGKVLVLDGVIQLTEKDEFAYHEMMTHVPMTVSKEPKNVLVVGGGDGGIIRELCKYKSVENIDICEIDETVIEVSKIYFKNISCGYEDKRVNVFIEDASKFLENVTNTYDVIIVDSSDPIGPAETLFNQNFYEKIYNALKPNGYCVAQCESLWIHVGTIKNMIGYAKKLFKKVEYANISIPTYPCGCIGILCCSKTDTGLTKPNKKLESKEFADLKYYNYENHSAAFKLPAFLLKEIENI
notes: Spermidine synthase of Plasmodium falciparum, construct lacking the first 39 N-terminal residues, in the p15-Tev-LIC vector, as described in Dufe et al. (2007); The crystals also held small-molecule ligands (MTA, dcAdoMet, putrescine, spermidine, 4MAN, 4AMA, BIPA); also called PfSpdS; SpdS; source: His-tag removed with TEV protease; not shown: His6, N-terminal, cleaved
B1: binds.
